Experimental data from IntAct's records for PubMed 25737013.

B1: Splicing factor 3B subunit 2 (Homo sapiens), Q13435 (parent)
chain: MATEHPEPPKAELQLPPPPPPGHYGAWAAQELQAKLAEIGAPIQGNREELVERLQSYTRQTGIVLNRPVLRGEDGDKAAPPPMSAQLPGIPMPPPPLGLPPLQPPPPPPPPPPGLGLGFPMAHPPNLGPPPPLRVGEPVALSEEERLKLAQQQAALLMQQEERAKQQGDHSLKEHELLEQQKRAAVLLEQERQQEIAKMGTPVPRPPQDMGQIGVRTPLGPRVAAPVGPVGPTPTVLPMGAPVPRPRGPPPPPGDENREMDDPSVGPKIPQALEKILQLKESRQEEMNSQQEEEEMETDARSSLGQSASETEEDTVSVSKKEKNRKRRNRKKKKKPQRVRGVSSESSGDREKDSTRSRGSDSPAADVEIEYVTEEPEIYEPNFIFFKRIFEAFKLTDDVKKEKEKEPEKLDKLENSAAPKKKGFEEEHKDSDDDSSDDEQEKKPEAPKLSKKKLRRMNRFTVAELKQLVARPDVVEMHDVTAQDPKLLVHLKATRNSVPVPRHWCFKRKYLQGKRGIEKPPFELPDFIKRTGIQEMREALQEKEEQKTMKSKMREKVRPKMGKIDIDYQKLHDAFFKWQTKPKLTIHGDLYYEGKEFETRLKEKKPGDLSDELRISLGMPVGPNAHKVPPPWLIAMQRYGPPPSYPNLKIPGLNSPIPESCSFGYHAGGWGKPPVDETGKPLYGDVFGTNAAEFQTKTEEEEIDRTPWGELEPSDEESSEEEEEEESDEDKPDETGFITPADSGLITPGGFSSVPAGMETPELIELRKKKIEEAMDGSETPQLFTVLPEKRTATVGGAMMGSTHIYDMSTVMSRKGPAPELQGVEVALAPEELELDPMAMTQKYEEHVREQQAQVEKEDFSDMVAEHAAKQKQKKRKAQPQDSRGGSKKYKEFKF
B2: Protein arginine N-methyltransferase 9 (Homo sapiens), Q6P2P2 (parent)
chain: MSNSRPRSRRDAGGGAGAAGRDELVSRSLQSAEHCLGVQDFGTAYAHYLLVLSLAPELKHDVKETFQYTLFRWAEELDALSRIQDLLGCYEQALELFPDDEVICNSMGEHLFRMGFRDEAAGYFHKAVKLNPDFSDAKENFYRVANWLVERWHFIMLNDTKRNTIYNAAIQKAVCLGSKSVLDIGAGTGILSMFAKKAGAHSVYACELSKTMYELACDVVAANKMEAGIKLLHTKSLDIEIPKHIPERVSLVVTETVDAGLFGEGIVESLIHAWEHLLLQPKTKGESANCEKYGKVIPASAVIFGMAVECAEIRRHHRVGIKDIAGIHLPTNVKFQSPAYSSVDTEETIEPYTTEKMSRVPGGYLALTECFEIMTVDFNNLQELKSLATKKPDKIGIPVIKEGILDAIMVWFVLQLDDEHSLSTSPSEETCWEQAVYPVQDLADYWIKPGDHVMMEVSCQDCYLRIQSISVLGLECEMDVAKSFTQNKDLLSLGNEAELCSALANLQTSKPDAVEQTCILESTEIALLNNIPYHEGFKMAMSKVLSSLTPEKLYQTMDTHCQNEMSSGTGQSNTVQNILEPFYVLDVSEGFSVLPVIAGTLGQVKPYSSVEKDQHRIALDLISEANHFPKETLEFWLRHVEDESAMLQRPKSDKLWSIIILDVIEPSGLIQQEIMEKAAISRCLLQSGGKIFPQYVLMFGLLVESQTLLEENAVQGTERTLGLNIAPFINQFQVPIRVFLDLSSLPCIPLSKPVELLRLDLMTPYLNTSNREVKVYVCKSGRLTAIPFWYHMYLDEEIRLDTSSEASHWKQAAVVLDNPIQVEMGEELVLSIQHHKSNVSITVKQ
B3: Splicing factor 3B subunit 2 (Homo sapiens), Q13435 (parent)
chain: B1 chain
partner: B2 chain

Variants of: B1
Conditions: with smn_human SMN1, Q16637
Chain of smn_human SMN1, Q16637 (Q16637 whole entry): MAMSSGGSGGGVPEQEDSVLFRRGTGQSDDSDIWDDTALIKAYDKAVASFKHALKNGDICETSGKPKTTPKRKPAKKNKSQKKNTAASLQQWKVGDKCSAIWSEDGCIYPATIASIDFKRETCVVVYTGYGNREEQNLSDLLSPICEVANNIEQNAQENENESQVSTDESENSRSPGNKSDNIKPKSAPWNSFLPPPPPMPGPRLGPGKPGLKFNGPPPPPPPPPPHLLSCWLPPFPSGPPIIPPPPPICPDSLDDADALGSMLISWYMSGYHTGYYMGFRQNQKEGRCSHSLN
R508K was tested, and the “effect of a mutation on the interaction” value was “disrupting interaction strength”.

Variants of: B2
Conditions: with sf3b2_human SF3B2, Q13435
L182A;D183A;I184A;G185A was tested, and the “effect of a mutation on the interaction” value was “disrupting interaction strength”.

Variants of: B3
Conditions: with anm9_human PRMT9, Q6P2P2
With R471K the “effect of a mutation on the interaction” value was “with no effect”. In the case of R537K, the “effect of a mutation on the interaction” value is reported as “with no effect”. In the case of R502K, the “effect of a mutation on the interaction” value is reported as “with no effect”. For R495K, the “effect of a mutation on the interaction” value was “with no effect”. R515K was tested, and the “effect of a mutation on the interaction” value was “with no effect”. R455K;R456K;R459K was tested, and the “effect of a mutation on the interaction” value was “with no effect”. With R530K the “effect of a mutation on the interaction” value was “with no effect”.

Variants of: B3
Conditions: with anm9_human PRMT9, Q6P2P2
Remark: another data set of the same source
For R508K, the “effect of a mutation on the interaction” value was “with no effect”.
